Common to all, as to experiment: pull-down
In assay [1] the target is MBP-3C–PPM-1.D–truncated–10×HIS (C. elegans).
For assay [2], the target named is MBP–PPM-1.D–10×HIS (C. elegans).
Assay [3] has as its target PPM-1.D(568-766) (C. elegans).

B1: GST–CHK-2–3×FLAG (enzyme)
chain: MVRGTKRRRSSAEKPIVVVPVTRDDTMPVDEDLVVGESQCAASKPFAKLVGVRRGISSIDLADDHFVCGRGSDDAPTNFNFSQVAKDVGLYRFISKIQFSIDRDTETRRIYLHDHSRNGTLVNQEMIGKGLSRELMNGDLISIGIPALIIFVYESADADHHPEELTKKYHVTSHSLGKGGFGKVLLGYKKSDRSVVAIKQLNTQFSTRCSRAIAKTRDIRNEVEVMKKLSHPNIVAIYDWITVAKYSYMVIEYVGGGEFFSKVVDSKYNRMGLGESLGKYFAFQLIDAILYLHSVGICHRDIKPENILCSDKAERCILKLTDFGMAKNSVNRMKTRCGTPSYNAPEIVANEGVEYTPKVDIWSLGCVLFITFSGYPPFSEEYTDMTMDEQVLTGRLIFHAQWRRITVETQNMIKWMLTVEPSNRPSAVELMSTQWMKCADCRTAKQDILKSIKPISAAAPAALQTTQAGPVKKAKM
In turn, B1 gave a fold binding relative to the MBP affinity tag (NRDE2∆N control) in assay [1] of 4 times. The molecule also came in with a fold binding relative to PPM-1.D lacking the C terminus in assay [2] of 70 fold. In assay [3], this molecule came in with a fold less binding than PPM-1.D of 10 times and a fold more binding than PPM-1.D^trunc of 7 times.

For the origin of these results see paper PMC8849337.
